In patent US7897364:
Residue numbers refer to the chain shown, from its start.

T1: agrin-C45
T1 chain: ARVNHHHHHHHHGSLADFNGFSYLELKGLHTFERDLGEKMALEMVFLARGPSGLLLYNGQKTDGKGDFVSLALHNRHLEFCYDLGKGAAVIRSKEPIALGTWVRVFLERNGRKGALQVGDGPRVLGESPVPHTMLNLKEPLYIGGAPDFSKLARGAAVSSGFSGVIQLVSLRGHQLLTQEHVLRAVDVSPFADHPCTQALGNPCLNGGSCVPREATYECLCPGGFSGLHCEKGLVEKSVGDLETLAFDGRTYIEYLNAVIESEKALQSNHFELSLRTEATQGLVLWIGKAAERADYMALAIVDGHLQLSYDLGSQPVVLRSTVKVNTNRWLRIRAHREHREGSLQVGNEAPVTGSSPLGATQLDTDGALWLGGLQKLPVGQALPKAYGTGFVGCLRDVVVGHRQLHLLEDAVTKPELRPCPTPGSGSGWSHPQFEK

B1: mouse neurotrypsin (protein)
chain: DPVSRSPLHRPHPSPPRSQHAHYLPSSRRPPRTPRFPLPLRIPAAQRPQVLSTGHTPPTIPRRCGAGESWGNATNLGVPCLHWDEVPPFLERSPPASWAELRGQPHNFCRSPDGSGRPWCFYRNAQGKVDWGYCDCGQGPALPVIRLVGGNSGHEGRVELYHAGQWGTICDDQWDNADADVICRQLGLSGIAKAWHQAHFGEGSGPILLDEVRCTGNELSIEQCPKSSWGEHNCGHKEDAGVSCVPLTDGVIRLAGGKSTHEGRLEVYYKGQWGTVCDDGWTEMNTYVACRLLGFKYGKQSSVNHFDGSNRPIWLDDVSCSGKEVSFIQCSRRQWGRHDCSHREDVGLTCYPDSDGHRLSPGFPIRLVDGENKKEGRVEVFVNGQWGTICDDGWTDKHAAVICRQLGYKGPARARTMAYFGEGKGPIHMDNVKCTGNEKALADCVKQDIGRHNCRHSEDAGVICDYLEKKASSSGNKEMLSSGCGLRLLHRRQKRIIGGNNSLRGAWPWQASLRLRSAHGDGRLLCGATLLSSCWVLTAAHCFKRYGNNSRSYAVRVGDYHTLVPEEFEQEIGVQQIVIHRNYRPDRSDYDIALVRLQGPGEQCARLSTHVLPACLPLWRERPQKTASNCHITGWGDTGRAYSRTLQQAAVPLLPKRFCKERYKGLFTGRMLCAGNLQEDNRVDSCQGDSGGPLMCEKPDESWVVYGVTSWGYGCGVKDTPGVYTRVPAFVPWIKSVTSL
B2: catalytically inactive neurotrypsin (Neurotrypsin Ser711Ala) (protein)
chain: B1 chain with S690A
B3: human neurotrypsin (protein)
chain: FDSVLNDSLHHSHRHSPPAGPHYPYYLPTQQRPPRTRPPPPLPRFPRPPRALPAQRPHALQAGHTPRPHPWGCPAGEPWVSVTDFGAPCLRWAEVPPFLERSPPASWAQLRGQRHNFCRSPDGAGRPWCFYGDARGKVDWGYCDCRHGSVRLRGGKNEFEGTVEVYASGVWGTVCSSHWDDSDASVICHQLQLGGKGIAKQTPFSGLGLIPIYWSNVRCRGDEENILLCEKDIWQGGVCPQKMAAAVTCSFSHGPTFPIIRLAGGSSVHEGRVELYHAGQWGTVCDDQWDDADAEVICRQLGLSGIAKAWHQAYFGEGSGPVMLDEVRCTGNELSIEQCPKSSWGEHNCGHKEDAGVSCTPLTDGVIRLAGGKGSHEGRLEVYYRGQWGTVCDDGWTELNTYVVCRQLGFKYGKQASANHFEESTGPIWLDDVSCSGKETRFLQCSRRQWGRHDCSHREDVSIACYPGGEGHRLSLGFPVRLMDGENKKEGRVEVFINGQWGTICDDGWTDKDAAVICRQLGYKGPARARTMAYFGEGKGPIHVDNVKCTGNERSLADCIKQDIGRHNCRHSEDAGVICDYFGKKASGNSNKESLSSVCGLRLLHRRQKRIIGGKNSLRGGWPWQVSLRLKSSHGDGRLLCGATLLSSCWVLTAAHCFKRYGNSTRSYAVRVGDYHTLVPEEFEEEIGVQQIVIHREYRPDRSDYDIALVRLQGPEEQCARFSSHVLPACLPLWRERPQKTASNCYITGWGDTGRAYSRTLQQAAIPLLPKRFCEERYKGRFTGRMLCAGNLHEHKRVDSCQGDSGGPLMCERPGESWVVYGVTSWGYGCGVKDSPGVYTKVSAFVPWIKSVTKL

Assays:
[1] = target: rat agrin, transmembrane isoform containing the splice variants Y4 and Z8, P25304
Chain of rat agrin, transmembrane isoform containing the splice variants Y4 and Z8, P25304 (P25304 whole entry, looked up, change not shown, canonical isoform): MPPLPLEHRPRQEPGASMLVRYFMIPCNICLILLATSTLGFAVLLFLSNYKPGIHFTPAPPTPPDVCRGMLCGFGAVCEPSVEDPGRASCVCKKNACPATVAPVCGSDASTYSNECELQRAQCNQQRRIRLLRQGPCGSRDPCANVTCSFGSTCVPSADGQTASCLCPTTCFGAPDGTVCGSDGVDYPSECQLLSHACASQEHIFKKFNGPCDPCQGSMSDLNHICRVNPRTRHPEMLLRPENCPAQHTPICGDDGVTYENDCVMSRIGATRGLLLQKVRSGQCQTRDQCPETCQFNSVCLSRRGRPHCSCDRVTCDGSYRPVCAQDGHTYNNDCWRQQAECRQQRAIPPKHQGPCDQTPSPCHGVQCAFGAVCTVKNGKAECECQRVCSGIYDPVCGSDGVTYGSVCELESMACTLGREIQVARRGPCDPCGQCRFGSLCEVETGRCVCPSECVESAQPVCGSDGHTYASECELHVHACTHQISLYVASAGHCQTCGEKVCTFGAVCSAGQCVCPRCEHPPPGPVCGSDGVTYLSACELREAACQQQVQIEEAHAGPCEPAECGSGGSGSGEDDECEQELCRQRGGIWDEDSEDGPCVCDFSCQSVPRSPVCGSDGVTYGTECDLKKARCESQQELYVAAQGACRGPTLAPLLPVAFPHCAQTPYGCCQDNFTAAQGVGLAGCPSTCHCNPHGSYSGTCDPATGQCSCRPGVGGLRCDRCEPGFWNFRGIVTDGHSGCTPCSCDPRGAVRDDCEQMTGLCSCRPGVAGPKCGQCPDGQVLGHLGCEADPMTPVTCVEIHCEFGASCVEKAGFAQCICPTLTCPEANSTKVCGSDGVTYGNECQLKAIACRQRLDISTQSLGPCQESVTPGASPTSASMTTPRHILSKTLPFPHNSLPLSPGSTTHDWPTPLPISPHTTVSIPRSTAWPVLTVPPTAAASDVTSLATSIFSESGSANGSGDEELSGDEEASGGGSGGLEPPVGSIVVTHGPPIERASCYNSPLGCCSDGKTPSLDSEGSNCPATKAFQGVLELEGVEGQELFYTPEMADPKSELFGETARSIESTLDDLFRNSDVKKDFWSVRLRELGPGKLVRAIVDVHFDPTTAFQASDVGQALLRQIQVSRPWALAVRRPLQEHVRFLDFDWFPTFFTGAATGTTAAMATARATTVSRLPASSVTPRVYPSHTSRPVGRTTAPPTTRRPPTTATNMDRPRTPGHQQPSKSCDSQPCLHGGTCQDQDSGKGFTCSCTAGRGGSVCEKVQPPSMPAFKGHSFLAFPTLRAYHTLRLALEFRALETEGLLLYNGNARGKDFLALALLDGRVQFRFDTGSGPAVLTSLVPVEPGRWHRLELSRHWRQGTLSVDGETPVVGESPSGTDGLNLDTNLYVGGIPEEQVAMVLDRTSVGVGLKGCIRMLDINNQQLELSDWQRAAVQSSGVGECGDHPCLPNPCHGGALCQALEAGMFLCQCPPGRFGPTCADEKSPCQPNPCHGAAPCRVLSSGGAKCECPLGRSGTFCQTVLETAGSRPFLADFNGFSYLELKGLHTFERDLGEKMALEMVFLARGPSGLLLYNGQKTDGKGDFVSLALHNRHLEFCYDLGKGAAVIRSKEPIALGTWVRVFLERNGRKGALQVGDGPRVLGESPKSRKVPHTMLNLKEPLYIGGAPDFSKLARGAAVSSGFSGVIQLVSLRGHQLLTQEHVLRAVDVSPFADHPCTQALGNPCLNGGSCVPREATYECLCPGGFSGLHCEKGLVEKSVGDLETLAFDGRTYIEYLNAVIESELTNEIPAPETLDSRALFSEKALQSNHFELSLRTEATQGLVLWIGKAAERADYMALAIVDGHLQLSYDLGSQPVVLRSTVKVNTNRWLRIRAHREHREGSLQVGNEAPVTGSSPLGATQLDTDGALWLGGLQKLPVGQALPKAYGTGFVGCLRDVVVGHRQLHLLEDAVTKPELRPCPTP

[2] = target: agrin (endogenous, in mouse spinal cord and brain), A2ASQ1
Chain of agrin (endogenous, in mouse spinal cord and brain), A2ASQ1 (A2ASQ1 whole entry): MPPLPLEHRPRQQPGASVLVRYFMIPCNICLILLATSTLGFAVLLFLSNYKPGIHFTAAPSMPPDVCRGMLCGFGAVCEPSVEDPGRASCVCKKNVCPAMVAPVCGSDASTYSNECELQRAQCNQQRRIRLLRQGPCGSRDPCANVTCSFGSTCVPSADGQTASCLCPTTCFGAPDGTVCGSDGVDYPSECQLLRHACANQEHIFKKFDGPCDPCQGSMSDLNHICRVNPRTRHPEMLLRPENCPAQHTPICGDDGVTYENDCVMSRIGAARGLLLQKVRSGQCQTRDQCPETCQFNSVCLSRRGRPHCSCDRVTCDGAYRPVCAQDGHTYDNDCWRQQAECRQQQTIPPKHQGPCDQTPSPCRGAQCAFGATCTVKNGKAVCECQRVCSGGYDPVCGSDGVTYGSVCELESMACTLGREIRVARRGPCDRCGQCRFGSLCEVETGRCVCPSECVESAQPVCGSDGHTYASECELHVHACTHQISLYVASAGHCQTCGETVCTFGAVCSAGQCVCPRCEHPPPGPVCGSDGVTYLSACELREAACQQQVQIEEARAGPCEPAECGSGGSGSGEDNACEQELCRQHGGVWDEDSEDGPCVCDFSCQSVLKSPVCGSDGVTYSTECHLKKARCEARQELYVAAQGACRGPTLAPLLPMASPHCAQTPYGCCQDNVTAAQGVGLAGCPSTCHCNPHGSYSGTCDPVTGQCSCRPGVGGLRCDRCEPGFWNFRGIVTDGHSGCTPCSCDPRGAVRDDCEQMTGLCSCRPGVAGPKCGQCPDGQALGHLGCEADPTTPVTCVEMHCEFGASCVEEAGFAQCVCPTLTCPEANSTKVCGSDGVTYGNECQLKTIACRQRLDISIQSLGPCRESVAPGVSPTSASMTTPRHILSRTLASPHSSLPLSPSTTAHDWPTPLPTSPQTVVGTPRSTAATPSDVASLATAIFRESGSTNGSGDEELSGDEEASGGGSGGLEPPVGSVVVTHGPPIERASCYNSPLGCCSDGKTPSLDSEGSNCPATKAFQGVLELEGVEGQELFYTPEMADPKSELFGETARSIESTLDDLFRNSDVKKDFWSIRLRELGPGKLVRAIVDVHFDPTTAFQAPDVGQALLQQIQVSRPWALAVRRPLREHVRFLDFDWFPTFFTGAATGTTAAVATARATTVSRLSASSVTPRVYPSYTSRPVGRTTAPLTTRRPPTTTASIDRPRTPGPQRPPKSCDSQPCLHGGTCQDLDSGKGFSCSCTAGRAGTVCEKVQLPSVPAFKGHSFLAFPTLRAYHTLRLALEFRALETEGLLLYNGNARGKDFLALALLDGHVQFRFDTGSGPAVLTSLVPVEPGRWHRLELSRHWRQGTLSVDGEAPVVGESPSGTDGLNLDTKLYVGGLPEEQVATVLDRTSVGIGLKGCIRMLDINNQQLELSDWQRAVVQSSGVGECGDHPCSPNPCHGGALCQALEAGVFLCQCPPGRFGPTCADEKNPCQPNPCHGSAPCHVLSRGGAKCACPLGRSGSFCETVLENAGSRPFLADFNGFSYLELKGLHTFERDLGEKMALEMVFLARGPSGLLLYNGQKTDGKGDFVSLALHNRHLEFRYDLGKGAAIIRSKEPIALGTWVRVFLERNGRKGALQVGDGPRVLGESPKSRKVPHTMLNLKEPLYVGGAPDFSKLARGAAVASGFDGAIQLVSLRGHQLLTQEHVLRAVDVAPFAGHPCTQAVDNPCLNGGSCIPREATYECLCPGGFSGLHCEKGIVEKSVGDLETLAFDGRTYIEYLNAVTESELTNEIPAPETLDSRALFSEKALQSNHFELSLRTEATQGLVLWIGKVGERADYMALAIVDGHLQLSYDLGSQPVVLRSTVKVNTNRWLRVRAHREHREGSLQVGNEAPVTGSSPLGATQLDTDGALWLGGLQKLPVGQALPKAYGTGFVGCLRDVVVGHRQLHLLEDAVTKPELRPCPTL

agrin-C45 = target: T1, agrin-C45

| Protein | 150 kDa C-terminal fragment of agrin-EGFP (Western blot) (agrin-EGFP) | release of a 100-kDa agrin fragment into the culture medium (Western blot) [1] | temporal pattern of the C-terminal 100-kDa agrin fragment and of neurotrypsin in mouse spinal cord (Western blot) [2] | cleavage of purified agrin-C45 by purified neurotrypsin (silver stained SDS-PAGE) (agrin-C45) | cleavage of purified agrin-EGFP by purified neurotrypsin (SDS-PAGE, Western blot) (agrin-EGFP) |
| --- | --- | --- | --- | --- | --- |
| B1 | Western blot detection of the 150 kDa C-terminal fragment of agrin (Ag-CF) generated by neurotrypsin-mediated cleavage of agrin-EGFP | In 200 µl culture medium of double transfected HEK293T cells a 100-kDa band was detected with the anti-agrin antibody | Western blotting with antibodies versus the C-terminal moiety of agrin revealed a highly similar temporal pattern | – | – |
| B2 | – | no signal was detected in medium of HEK293T cells transfected with agrin and catalytically inactive neurotrypsin | – | – | – |
| B3 | – | – | – | The cleavage products agrin-C45 are found between 20 and 25 kDa | Lane 2 shows the agrin-EGFP (indicated by arrow marked Ag-EGPF) and the C-terminal fragment of approximately 150 kDa generated by neurotrypsin activity |
